Test results: doi:10.1101/553636

Biological target: BD-Barstar D35A
Experiment: two-hybrid

## AD-Barnase H102A (enzyme)
  Kd: 11 to 122 nM
